Several values for one entry are separate records, joined by “and”; a condition that tells them apart may be missing. Equal values may be shown once.
Assays:
Experiment in all cases: BLI
Details in all cases: both partners purified
[1] = target: T1, CoV2 Parental S-RBD fused with human Fc (SARS-CoV-2, UniProt P0DTC2)
T1 construct: also called Parental RBD; RBD-Fc

[2] = target: T2, CoV2 Parental S-RBD fused with human Fc (SARS-CoV-2, UniProt P0DTC2)
T2 construct: also called Parental RBD; RBD-Fc (Parental)

[3] = target: T3, CoV2 Omicron S-RBD with human Fc (SARS-CoV-2, UniProt P0DTC2)
T3 construct: also called Omicron RBD; RBD-Fc (Omicron)

B1: shACE2 N90A/N322A double glycan deletant (domain or fragment)
chain: STIEEQAKTFLDKFNHEAEDLFYQSSLASWNYNTNITEENVQNMNNAGDKWSAFLKEQSTLAQMYPLQEIQALTVKLQLQALQQNGSSVLSEDKSKRLNTILNTMSTIYSTGKVCNPDNPQECLLLEPGLNEIMANSLDYNERLWAWESWRSEVGKQLRPLYEEYVVLKNEMARANHYEDYGDYWRGDYEVNGVDGYDYSRGQLIEDVEHTFEEIKPLYEHLHAYVRAKLMNAYPSYISPIGCLPAHLLGDMWGRFWTNLYSLTVPFGQKPNIDVTDAMVDQAWDAQRIFKEAEKFFVSVGLPAMTQGFWENSMLTDPGNVQKAVCHPTAWDLGKGDFRILMCTKVTMDDFLTAHHEMGHIQYDMAYAAQPFLLRNGANEGFHEAVGEIMSLSAATPKHLKSIGLLSPDFQEDNETEINFLLKQALTIVGTLPFTYMLEKWRWMVFKGEIPKDQWMKKWWEMKREIVGVVEPVPHDETYCDPASLFHVSNDYSFIRYYTRTLYQFQFQEALCQAAKHEGPLHKCDISNSTEAGQKLFNMLRLGKSEPWTLALENVVGAKNMNVRPLLNYFEPLFTWLKDQNKNSFVGWSTDWSPYADQSIK
notes: also called N90A/N322A double deletant
Kd [1]: 115 nM

B2: soluble hACE2 N53S/N322S (receptor)
chain: STIEEQAKTFLDKFNHEAEDLFYQSSLASWNYNTSITEENVQNMNNAGDKWSAFLKEQSTLAQMYPLQEIQNLTVKLQLQALQQNGSSVLSEDKSKRLNTILNTMSTIYSTGKVCNPDNPQECLLLEPGLNEIMANSLDYNERLWAWESWRSEVGKQLRPLYEEYVVLKNEMARANHYEDYGDYWRGDYEVNGVDGYDYSRGQLIEDVEHTFEEIKPLYEHLHAYVRAKLMNAYPSYISPIGCLPAHLLGDMWGRFWTNLYSLTVPFGQKPNIDVTDAMVDQAWDAQRIFKEAEKFFVSVGLPSMTQGFWENSMLTDPGNVQKAVCHPTAWDLGKGDFRILMCTKVTMDDFLTAHHEMGHIQYDMAYAAQPFLLRNGANEGFHEAVGEIMSLSAATPKHLKSIGLLSPDFQEDNETEINFLLKQALTIVGTLPFTYMLEKWRWMVFKGEIPKDQWMKKWWEMKREIVGVVEPVPHDETYCDPASLFHVSNDYSFIRYYTRTLYQFQFQEALCQAAKHEGPLHKCDISNSTEAGQKLFNMLRLGKSEPWTLALENVVGAKNMNVRPLLNYFEPLFTWLKDQNKNSFVGWSTDWSPYADQSIK
notes: also called double glycan deletant
Kd [2]: 438 nM and 457 nM and 448 nM
Kd [3]: 163 nM and 162 nM (2×)

B3: soluble hACE2 N53A/N90A (receptor)
chain: STIEEQAKTFLDKFNHEAEDLFYQSSLASWNYNTAITEENVQNMNNAGDKWSAFLKEQSTLAQMYPLQEIQALTVKLQLQALQQNGSSVLSEDKSKRLNTILNTMSTIYSTGKVCNPDNPQECLLLEPGLNEIMANSLDYNERLWAWESWRSEVGKQLRPLYEEYVVLKNEMARANHYEDYGDYWRGDYEVNGVDGYDYSRGQLIEDVEHTFEEIKPLYEHLHAYVRAKLMNAYPSYISPIGCLPAHLLGDMWGRFWTNLYSLTVPFGQKPNIDVTDAMVDQAWDAQRIFKEAEKFFVSVGLPNMTQGFWENSMLTDPGNVQKAVCHPTAWDLGKGDFRILMCTKVTMDDFLTAHHEMGHIQYDMAYAAQPFLLRNGANEGFHEAVGEIMSLSAATPKHLKSIGLLSPDFQEDNETEINFLLKQALTIVGTLPFTYMLEKWRWMVFKGEIPKDQWMKKWWEMKREIVGVVEPVPHDETYCDPASLFHVSNDYSFIRYYTRTLYQFQFQEALCQAAKHEGPLHKCDISNSTEAGQKLFNMLRLGKSEPWTLALENVVGAKNMNVRPLLNYFEPLFTWLKDQNKNSFVGWSTDWSPYADQSIK
notes: as for B2
Kd [2]: 220 nM and 246 nM and 233 nM
Kd [3]: 83.2 nM and 116 nM and 99.5 nM

B4: soluble hACE2 N53A/N90A/N322A (receptor)
chain: STIEEQAKTFLDKFNHEAEDLFYQSSLASWNYNTAITEENVQNMNNAGDKWSAFLKEQSTLAQMYPLQEIQALTVKLQLQALQQNGSSVLSEDKSKRLNTILNTMSTIYSTGKVCNPDNPQECLLLEPGLNEIMANSLDYNERLWAWESWRSEVGKQLRPLYEEYVVLKNEMARANHYEDYGDYWRGDYEVNGVDGYDYSRGQLIEDVEHTFEEIKPLYEHLHAYVRAKLMNAYPSYISPIGCLPAHLLGDMWGRFWTNLYSLTVPFGQKPNIDVTDAMVDQAWDAQRIFKEAEKFFVSVGLPAMTQGFWENSMLTDPGNVQKAVCHPTAWDLGKGDFRILMCTKVTMDDFLTAHHEMGHIQYDMAYAAQPFLLRNGANEGFHEAVGEIMSLSAATPKHLKSIGLLSPDFQEDNETEINFLLKQALTIVGTLPFTYMLEKWRWMVFKGEIPKDQWMKKWWEMKREIVGVVEPVPHDETYCDPASLFHVSNDYSFIRYYTRTLYQFQFQEALCQAAKHEGPLHKCDISNSTEAGQKLFNMLRLGKSEPWTLALENVVGAKNMNVRPLLNYFEPLFTWLKDQNKNSFVGWSTDWSPYADQSIK
notes: also called N53A/N90A/N322A triple deletant
Kd [2]: 262 nM and 246 nM
Kd [3]: 67.1 nM and 75.5 nM and 71.3 nM

B5: soluble hACE2 N53A/N322A (receptor)
chain: STIEEQAKTFLDKFNHEAEDLFYQSSLASWNYNTAITEENVQNMNNAGDKWSAFLKEQSTLAQMYPLQEIQNLTVKLQLQALQQNGSSVLSEDKSKRLNTILNTMSTIYSTGKVCNPDNPQECLLLEPGLNEIMANSLDYNERLWAWESWRSEVGKQLRPLYEEYVVLKNEMARANHYEDYGDYWRGDYEVNGVDGYDYSRGQLIEDVEHTFEEIKPLYEHLHAYVRAKLMNAYPSYISPIGCLPAHLLGDMWGRFWTNLYSLTVPFGQKPNIDVTDAMVDQAWDAQRIFKEAEKFFVSVGLPAMTQGFWENSMLTDPGNVQKAVCHPTAWDLGKGDFRILMCTKVTMDDFLTAHHEMGHIQYDMAYAAQPFLLRNGANEGFHEAVGEIMSLSAATPKHLKSIGLLSPDFQEDNETEINFLLKQALTIVGTLPFTYMLEKWRWMVFKGEIPKDQWMKKWWEMKREIVGVVEPVPHDETYCDPASLFHVSNDYSFIRYYTRTLYQFQFQEALCQAAKHEGPLHKCDISNSTEAGQKLFNMLRLGKSEPWTLALENVVGAKNMNVRPLLNYFEPLFTWLKDQNKNSFVGWSTDWSPYADQSIK
notes: as for B2
Kd [2]: 411 nM and 395 nM and 403 nM
Kd [3]: 164 nM and 139 nM and 151 nM

B6: soluble hACE2 N53S/N90S (receptor)
chain: STIEEQAKTFLDKFNHEAEDLFYQSSLASWNYNTSITEENVQNMNNAGDKWSAFLKEQSTLAQMYPLQEIQSLTVKLQLQALQQNGSSVLSEDKSKRLNTILNTMSTIYSTGKVCNPDNPQECLLLEPGLNEIMANSLDYNERLWAWESWRSEVGKQLRPLYEEYVVLKNEMARANHYEDYGDYWRGDYEVNGVDGYDYSRGQLIEDVEHTFEEIKPLYEHLHAYVRAKLMNAYPSYISPIGCLPAHLLGDMWGRFWTNLYSLTVPFGQKPNIDVTDAMVDQAWDAQRIFKEAEKFFVSVGLPNMTQGFWENSMLTDPGNVQKAVCHPTAWDLGKGDFRILMCTKVTMDDFLTAHHEMGHIQYDMAYAAQPFLLRNGANEGFHEAVGEIMSLSAATPKHLKSIGLLSPDFQEDNETEINFLLKQALTIVGTLPFTYMLEKWRWMVFKGEIPKDQWMKKWWEMKREIVGVVEPVPHDETYCDPASLFHVSNDYSFIRYYTRTLYQFQFQEALCQAAKHEGPLHKCDISNSTEAGQKLFNMLRLGKSEPWTLALENVVGAKNMNVRPLLNYFEPLFTWLKDQNKNSFVGWSTDWSPYADQSIK
notes: as for B2
Kd [2]: 223 nM and 226 nM and 224 nM
Kd [3]: 101 nM and 123 nM and 112 nM

B7: soluble hACE2 N90A/N322A (receptor)
chain: STIEEQAKTFLDKFNHEAEDLFYQSSLASWNYNTNITEENVQNMNNAGDKWSAFLKEQSTLAQMYPLQEIQALTVKLQLQALQQNGSSVLSEDKSKRLNTILNTMSTIYSTGKVCNPDNPQECLLLEPGLNEIMANSLDYNERLWAWESWRSEVGKQLRPLYEEYVVLKNEMARANHYEDYGDYWRGDYEVNGVDGYDYSRGQLIEDVEHTFEEIKPLYEHLHAYVRAKLMNAYPSYISPIGCLPAHLLGDMWGRFWTNLYSLTVPFGQKPNIDVTDAMVDQAWDAQRIFKEAEKFFVSVGLPAMTQGFWENSMLTDPGNVQKAVCHPTAWDLGKGDFRILMCTKVTMDDFLTAHHEMGHIQYDMAYAAQPFLLRNGANEGFHEAVGEIMSLSAATPKHLKSIGLLSPDFQEDNETEINFLLKQALTIVGTLPFTYMLEKWRWMVFKGEIPKDQWMKKWWEMKREIVGVVEPVPHDETYCDPASLFHVSNDYSFIRYYTRTLYQFQFQEALCQAAKHEGPLHKCDISNSTEAGQKLFNMLRLGKSEPWTLALENVVGAKNMNVRPLLNYFEPLFTWLKDQNKNSFVGWSTDWSPYADQSIK
notes: as for B1
Kd [2]: 127 nM and 103 nM
Kd [3]: 36.5 nM and 36 nM and 36.3 nM

B8: soluble hACE2 N90S/N322S (receptor)
chain: STIEEQAKTFLDKFNHEAEDLFYQSSLASWNYNTNITEENVQNMNNAGDKWSAFLKEQSTLAQMYPLQEIQSLTVKLQLQALQQNGSSVLSEDKSKRLNTILNTMSTIYSTGKVCNPDNPQECLLLEPGLNEIMANSLDYNERLWAWESWRSEVGKQLRPLYEEYVVLKNEMARANHYEDYGDYWRGDYEVNGVDGYDYSRGQLIEDVEHTFEEIKPLYEHLHAYVRAKLMNAYPSYISPIGCLPAHLLGDMWGRFWTNLYSLTVPFGQKPNIDVTDAMVDQAWDAQRIFKEAEKFFVSVGLPSMTQGFWENSMLTDPGNVQKAVCHPTAWDLGKGDFRILMCTKVTMDDFLTAHHEMGHIQYDMAYAAQPFLLRNGANEGFHEAVGEIMSLSAATPKHLKSIGLLSPDFQEDNETEINFLLKQALTIVGTLPFTYMLEKWRWMVFKGEIPKDQWMKKWWEMKREIVGVVEPVPHDETYCDPASLFHVSNDYSFIRYYTRTLYQFQFQEALCQAAKHEGPLHKCDISNSTEAGQKLFNMLRLGKSEPWTLALENVVGAKNMNVRPLLNYFEPLFTWLKDQNKNSFVGWSTDWSPYADQSIK
notes: as for B2
Kd [2]: 123 nM and 126 nM and 125 nM
Kd [3]: 38.2 nM and 38.5 nM and 38.4 nM

B9: soluble hACE2 N53S/N90S/N322S (receptor)
chain: STIEEQAKTFLDKFNHEAEDLFYQSSLASWNYNTSITEENVQNMNNAGDKWSAFLKEQSTLAQMYPLQEIQSLTVKLQLQALQQNGSSVLSEDKSKRLNTILNTMSTIYSTGKVCNPDNPQECLLLEPGLNEIMANSLDYNERLWAWESWRSEVGKQLRPLYEEYVVLKNEMARANHYEDYGDYWRGDYEVNGVDGYDYSRGQLIEDVEHTFEEIKPLYEHLHAYVRAKLMNAYPSYISPIGCLPAHLLGDMWGRFWTNLYSLTVPFGQKPNIDVTDAMVDQAWDAQRIFKEAEKFFVSVGLPSMTQGFWENSMLTDPGNVQKAVCHPTAWDLGKGDFRILMCTKVTMDDFLTAHHEMGHIQYDMAYAAQPFLLRNGANEGFHEAVGEIMSLSAATPKHLKSIGLLSPDFQEDNETEINFLLKQALTIVGTLPFTYMLEKWRWMVFKGEIPKDQWMKKWWEMKREIVGVVEPVPHDETYCDPASLFHVSNDYSFIRYYTRTLYQFQFQEALCQAAKHEGPLHKCDISNSTEAGQKLFNMLRLGKSEPWTLALENVVGAKNMNVRPLLNYFEPLFTWLKDQNKNSFVGWSTDWSPYADQSIK
notes: also called triple glycan deletant
Kd [2]: 178 nM and 219 nM and 198 nM
Kd [3]: 64.7 nM and 72.7 nM and 68.7 nM
